Target: T1, HA-tagged APOBEC3G (human, UniProt Q9HC16 1-384)
T1 construct: APOBEC3G (A3G), human cytidine deaminase, expressed from pA3G-HA; The plasmid pA3G-HA is not described in the Plasmids section; also called A3G-HA; A3G; source: HEK 293T, transfected (pA3G-HA), in lysate
Assay: co-IP; HEK 293T cells co-transfected with pA3G-HA and wild-type or mutant Vif plasmids; lysed in RIPA 1X 24 h post-transfection; anti-HA antibody 2 h at 4 °C, protein A Dynabeads 1.5 h at 4 °C, 5 washes with cold RIPA; western blot with anti-Vif
Conditions: partners not purified

T1 sequence (Q9HC16 whole entry): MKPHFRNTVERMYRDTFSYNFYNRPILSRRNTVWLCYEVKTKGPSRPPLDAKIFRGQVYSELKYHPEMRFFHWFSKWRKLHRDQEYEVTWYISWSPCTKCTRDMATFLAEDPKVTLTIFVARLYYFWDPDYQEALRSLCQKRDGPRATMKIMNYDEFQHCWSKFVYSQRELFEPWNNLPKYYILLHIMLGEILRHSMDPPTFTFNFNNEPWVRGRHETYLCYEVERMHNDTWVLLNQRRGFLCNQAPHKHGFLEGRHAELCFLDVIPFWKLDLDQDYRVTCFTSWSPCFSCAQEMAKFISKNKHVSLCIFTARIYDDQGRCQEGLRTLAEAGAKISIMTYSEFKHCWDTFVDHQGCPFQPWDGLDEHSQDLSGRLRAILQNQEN

B1: Vif H42/43N (natural protein)
chain: not shown
notes: Vif of HIV-1 NL4.3 (codon-optimized pcDNAhVif) with the mutations H42N and H43N; also called H42/H43-N; Vif mutant H42/43N; source: HEK 293T, transfected (pcDNAhVif mutant), in lysate
fold decrease of binding against wild-type Vif: ~2 fold

From article PMC5171582, “Translational regulation of APOBEC3G mRNA by Vif requires its 5′UTR and contributes to restoring HIV-1 infectivity” (Scientific Reports, 2016)
